# From patent US20210301025A1 (published 2021)
# Positions count from the first letter of the chain named. Names and notes keep the numbering of the source.
# B1: P114AR7P92-H5 (designed binder, not shown: small tags and cut ends)
# chain: LPAPKNLVVSRVTEDSARLSWTAPDAAFDSFWIRYLEFLLGGEAIVLTVPGSERSYDLTGLKPGTEYVVQIMGVKGGTVSPPLSAIFTT
# B2: P114AR7P95-D4 (designed binder, not shown: small tags and cut ends)
# chain: B1 chain with L36F, L40G, G41S, M72L, T78Y, V79I, P81I
# B3: P54AR4-83v2 R54C, NEM conjugate (designed binder, not shown: small tags and cut ends)
# chain: LPAPKNLVVSEVTEDSARLSWDDPWAFYESFLIQYQESEKVGEAIVLTVPGSECSYDLTGLKPGTEYTVSIYGVHNVYKDTNMRGLPLSAIFTT
# modifications: N-ethyl maleimide (NEM) on Cys 54
# B4: P54AR4-83v2 S30C, NEM conjugate (designed binder, not shown: small tags and cut ends)
# chain: B3 chain with S30C, C54R
# modifications: N-ethyl maleimide (NEM) on Cys 30
# notes: also called 530C
# B5: P54AR4-83v2 S20C, NEM conjugate (designed binder, not shown: small tags and cut ends)
# chain: B3 chain with S20C, C54R
# modifications: N-ethyl maleimide (NEM) on Cys 20
# notes: also called 520C
# B6: P54AR4-83v2 V9C, NEM conjugate (designed binder, not shown: small tags and cut ends)
# chain: B3 chain with V9C, C54R
# modifications: N-ethyl maleimide (NEM) on Cys 9
# B7: P54AR4-83v2 S89C, NEM conjugate (designed binder, not shown: small tags and cut ends)
# chain: B3 chain with C54R, S89C
# modifications: N-ethyl maleimide (NEM) on Cys 89
# B8: P54AR4-83v2 S52C, NEM conjugate (designed binder, not shown: small tags and cut ends)
# chain: B3 chain with S52C, C54R
# modifications: N-ethyl maleimide (NEM) on Cys 52
# B9: P54AR4-83v2 V49C, NEM conjugate (designed binder, not shown: small tags and cut ends)
# chain: B3 chain with V49C, C54R
# modifications: N-ethyl maleimide (NEM) on Cys 49
# B10: P54AR4-83v2 Y78C, NEM conjugate (designed binder, not shown: small tags and cut ends)
# chain: B3 chain with C54R, Y78C
# modifications: N-ethyl maleimide (NEM) on Cys 78
# B11: P54AR4-83v2 V8C, NEM conjugate (designed binder, not shown: small tags and cut ends)
# chain: B3 chain with V8C, C54R
# modifications: N-ethyl maleimide (NEM) on Cys 8
# B12: P54AR4-83v2 Y72C, NEM conjugate (designed binder, not shown: small tags and cut ends)
# chain: B3 chain with C54R, Y72C
# modifications: N-ethyl maleimide (NEM) on Cys 72
# B13: P54AR4-83v2 V77C, NEM conjugate (designed binder, not shown: small tags and cut ends)
# chain: B3 chain with C54R, V77C
# modifications: N-ethyl maleimide (NEM) on Cys 77
# B14: P54AR4-83v2 T93C, NEM conjugate (designed binder, not shown: small tags and cut ends)
# chain: B3 chain with C54R, T93C
# modifications: N-ethyl maleimide (NEM) on Cys 93
# B15: P54AR4-83v2 S38C, NEM conjugate (designed binder, not shown: small tags and cut ends)
# chain: B3 chain with S38C, C54R
# modifications: N-ethyl maleimide (NEM) on Cys 38
# B16: P54AR4-83v2 V41C, NEM conjugate (designed binder, not shown: small tags and cut ends)
# chain: B3 chain with V41C, C54R
# modifications: N-ethyl maleimide (NEM) on Cys 41
# B17: P54AR4-83v2 T48C, NEM conjugate (designed binder, not shown: small tags and cut ends)
# chain: B3 chain with T48C, C54R
# modifications: N-ethyl maleimide (NEM) on Cys 48
# B18: P54AR4-83v2 V46C, NEM conjugate (designed binder, not shown: small tags and cut ends)
# chain: B3 chain with V46C, C54R
# modifications: N-ethyl maleimide (NEM) on Cys 46
# B19: P54AR4-83v2 Y28C, NEM conjugate (designed binder, not shown: small tags and cut ends)
# chain: B3 chain with Y28C, C54R
# modifications: N-ethyl maleimide (NEM) on Cys 28
# B20: P54AR4-83v2 W25C, NEM conjugate (designed binder, not shown: small tags and cut ends)
# chain: B3 chain with W25C, C54R
# modifications: N-ethyl maleimide (NEM) on Cys 25
# B21: P54AR4-83v2 S10C, NEM conjugate (designed binder, not shown: small tags and cut ends)
# chain: B3 chain with S10C, C54R
# modifications: N-ethyl maleimide (NEM) on Cys 10
# B22: P54AR4-83v2 V12C, NEM conjugate (designed binder, not shown: small tags and cut ends)
# chain: B3 chain with V12C, C54R
# modifications: N-ethyl maleimide (NEM) on Cys 12
# B23: P54AR4-83v2 S16C, NEM conjugate (designed binder, not shown: small tags and cut ends)
# chain: B3 chain with S16C, C54R
# modifications: N-ethyl maleimide (NEM) on Cys 16
# B24: P54AR4-83v2 V74C, NEM conjugate (designed binder, not shown: small tags and cut ends)
# chain: B3 chain with C54R, V74C
# modifications: N-ethyl maleimide (NEM) on Cys 74
# B25: P54AR4-83v2 S70C, NEM conjugate (designed binder, not shown: small tags and cut ends)
# chain: B3 chain with C54R, S70C
# modifications: N-ethyl maleimide (NEM) on Cys 70
# notes: also called 570C
# B26: P54AR4-83v2 T59C, NEM conjugate (designed binder, not shown: small tags and cut ends)
# chain: B3 chain with C54R, T59C
# modifications: N-ethyl maleimide (NEM) on Cys 59
# B27: P54AR4-83v2 T68C, NEM conjugate (designed binder, not shown: small tags and cut ends)
# chain: B3 chain with C54R, T68C
# modifications: N-ethyl maleimide (NEM) on Cys 68
# notes: not used
# B28: P54AR4-83v2 R84C, NEM conjugate (designed binder, not shown: small tags and cut ends)
# chain: B3 chain with C54R, R84C
# modifications: N-ethyl maleimide (NEM) on Cys 84
# B29: P54AR4-83v2 T81C, NEM conjugate (designed binder, not shown: small tags and cut ends)
# chain: B3 chain with C54R, T81C
# modifications: N-ethyl maleimide (NEM) on Cys 81
# B30: P54AR4-83v2 T13C, NEM conjugate (designed binder, not shown: small tags and cut ends)
# chain: B3 chain with T13C, C54R
# modifications: N-ethyl maleimide (NEM) on Cys 13
# B31: P54AR4-83v2 S55C, NEM conjugate (designed binder, not shown: small tags and cut ends)
# chain: B3 chain with C54R, S55C
# modifications: N-ethyl maleimide (NEM) on Cys 55
# B32: P114AR7P95-E3 (designed binder, not shown: small tags and cut ends)
# chain: B1 chain with L36F, L40G, G41S
# B33: P114AR7P93-D11 (designed binder, not shown: small tags and cut ends)
# chain: B1 chain with L36F, L40G, G41S, Q70G, M72N, T78Y, V79I, P81Y
# Target: T1, recombinant c-Met extracellular domain (human, UniProt P08581 16-932)
# T1 construct: Construct used for SPR is not described further (may be the Fc chimera, as the protocol captures on anti-human Fc)
# Assay: SPR kinetic analysis as in Example 2
row,Binder,Kd
1,B1,11.6 nM
2,B2,0.4 nM

# Target: T2, EGFR (form used in the assay not stated) (human, UniProt P00533 25-645, limits assumed)
# Assay: ELISA, NEM conjugate, 10 nM
row,Binder,binding relative to P54AR4-83v2 parent
1,B3,0.89 ratio
2,B4,0.9 ratio
3,B5,0.81 ratio
4,B6,0.94 ratio
5,B7,0.97 ratio
6,B8,0.78 ratio
7,B9,0.96 ratio
8,B10,0.31 ratio
9,B11,0.96 ratio
10,B12,0.93 ratio
11,B13,0.03 ratio
12,B14,0.96 ratio
13,B15,0.8 ratio
14,B16,0.92 ratio
15,B17,0.88 ratio
16,B18,0.61 ratio
17,B19,0 ratio
18,B20,0.38 ratio
19,B21,0.83 ratio
20,B22,0.87 ratio
21,B23,0.88 ratio
22,B24,0.76 ratio
23,B25,0.86 ratio
24,B26,0.83 ratio
25,B27,0.83 ratio
26,B28,0.91 ratio
27,B29,0.5 ratio
28,B30,0.87 ratio
29,B31,0 ratio

# Target: T2, EGFR (form used in the assay not stated)
# Assay: ELISA, NEM conjugate, 500 nM
row,Binder,binding relative to P54AR4-83v2 parent
1,B3,0.93 ratio
2,B4,0.9 ratio
3,B5,0.91 ratio
4,B6,0.93 ratio
5,B7,1.04 ratio
6,B8,0.93 ratio
7,B9,0.98 ratio
8,B10,0.68 ratio
9,B11,0.9 ratio
10,B12,0.93 ratio
11,B13,0.03 ratio
12,B14,1.04 ratio
13,B15,0.82 ratio
14,B16,0.95 ratio
15,B17,0.93 ratio
16,B18,0.9 ratio
17,B19,0.09 ratio
18,B20,0.7 ratio
19,B21,0.96 ratio
20,B22,0.93 ratio
21,B23,0.63 ratio
22,B24,0.95 ratio
23,B25,0.93 ratio
24,B26,0.93 ratio
25,B27,0.95 ratio
26,B28,0.98 ratio
27,B29,1.02 ratio
28,B30,0.9 ratio
29,B31,0.11 ratio

# Target: T3, human c-Met on cells (NCI-H441, NCI-H292, U87-MG) (human, UniProt P08581 25-1390)
# T3 construct: Endogenous c-Met of human tumor cell lines; also called hepatocyte growth factor receptor
# Assay: NCI-H441 cell binding, anti-His fluorescence
# Protocol: Purified FN3 domains (50 μL/well; 0 to 1000 nM) were added to the cells for 1 hour at 4° C. in duplicate plates. Supernatant was removed and cells were washed three times with FACS stain buffer (150 μL/well, BD Biosciences, cat #554657). Cells were incubated with biotinylated-anti HIS antibody (diluted 1:160 in FACS stain buffer, 50 μL/well, R&D Systems, cat # BAM050) for 30 minutes at 4° C. Cells were washed three times with FACS stain buffer (150 μL/well), after which wells were incubated with anti mouse IgG1-Alexa 488 conjugated antibody (diluted 1:80 in FACS stain buffer, 50 μL/well, Life Technologies, cat # A21121) for 30 minutes at 4° C. Cells were washed three times with FACS stain buffer (150 μL/well) and left in FACS stain buffer (50 μL/well). Total fluorescence was determined using an Acumen eX3 reader. Data were plotted as raw fluorescence signal against the logarithm of the FN3 domain molar concentration and fitted to a sigmoidal dose-response curve with variable slope using GraphPad Prism 4 (GraphPad Software) to calculate EC₅₀ values.
row,Binder,EC50
1,B1,22 nM
2,B2,1.4 nM
3,B32,3.2 nM
4,B33,2.3 nM

# Target: T3, human c-Met on cells (NCI-H441, …)
# Assay: cell-based or functional assay
Binder,Inhibition of proliferation of U87-MG cells IC50,pMet inhibition in H441 cells IC50
B1,672 nM,766 nM
B2,19.4 nM,19.5 nM
B32,209 nM,205 nM
B33,14.4 nM,16 nM

# Target: T2, EGFR (form used in the assay not stated)
# Assay: ELISA, NEM conjugate, 100 nM
row,Binder,binding relative to P54AR4-83v2 parent
1,B3,1.01 ratio
2,B4,1.02 ratio
3,B5,1.05 ratio
4,B6,1.03 ratio
5,B7,1.02 ratio
6,B8,1.03 ratio
7,B9,1.01 ratio
8,B10,0.63 ratio
9,B11,1.03 ratio
10,B12,1 ratio
11,B13,0 ratio
12,B14,1.05 ratio
13,B15,0.93 ratio
14,B16,0.99 ratio
15,B17,1 ratio
16,B18,1.01 ratio
17,B19,0.01 ratio
18,B20,0.64 ratio
19,B21,1.07 ratio
20,B22,1.06 ratio
21,B23,1.05 ratio
22,B24,1.01 ratio
23,B25,1.01 ratio
24,B26,1.04 ratio
25,B27,1.04 ratio
26,B28,1.04 ratio
27,B29,0.9 ratio
28,B30,1.04 ratio
29,B31,0 ratio
